# B1: Fractalkine (Homo sapiens), P78423 (parent)
# chain: MAPISLSWLLRLATFCHLTVLLAGQHHGVTKCNITCSKMTSKIPVALLIHYQQNQASCGKRAIILETRQHRLFCADPKEQWVKDAMQHLDRQAAALTRNGGTFEKQIGEVKPRTTPAAGGMDESVVLEPEATGESSSLEPTPSSQEAQRALGTSPELPTGVTGSSGTRLPPTPKAQDGGPVGTELFRVPPVSTAATWQSSAPHQPGPSLWAEAKTSEAPSTQDPSTQASTASSPAPEENAPSEGQRVWGQGQSPRPENSLEREEMGPVPAHTDAFQDWGPGSMAHVSVVPVSSEGTPSREPVASGSWTPKAEEPIHATMDPQRLGVLITPVPDAQAATRRQAVGLLAFLGLLFCLGVAMFTYQSLQGCPRKMAGEMAEGLRYIPRSCGSNSYVLVPV
# Variants of: B1
# Settings: with cx3c1_human CX3CR1, P49238
# Chain of cx3c1_human CX3CR1, P49238 (P49238 whole entry): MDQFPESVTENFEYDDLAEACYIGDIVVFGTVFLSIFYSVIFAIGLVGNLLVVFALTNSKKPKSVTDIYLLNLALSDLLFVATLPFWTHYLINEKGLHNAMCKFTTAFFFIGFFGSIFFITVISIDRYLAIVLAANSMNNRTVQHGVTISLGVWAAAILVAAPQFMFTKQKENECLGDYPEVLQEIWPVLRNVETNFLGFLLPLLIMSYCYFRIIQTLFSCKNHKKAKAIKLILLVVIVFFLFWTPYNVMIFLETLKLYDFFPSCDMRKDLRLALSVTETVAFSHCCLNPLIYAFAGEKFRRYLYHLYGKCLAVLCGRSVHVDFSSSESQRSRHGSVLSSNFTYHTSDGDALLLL
row,Variant,effect of a mutation on the interaction
1,MAPISLSWLLRLATFCHLTVLLAGQHHGVTKCNITCSKMTSKIPVALLIHYQQNQASCGKRAIILETRQHALFCADPKEQWVKDAMQHLDRQAAALTRNGGTFEKQIGEVKPRTTPAAGGMDESVVLEPEATGESSSLEPTPSSQEAQRALGTSPELPTGVTGSSGTRLPPTPKAQDGGPVGTELFRVPPVSTAATWQSSAPHQPGPSLWAEAKTSEAPSTQDPSTQASTASSPAPEENAPSEGQRVWGQGQSPRPENSLEREEMGPVPAHTDAFQDWGPGSMAHVSVVPVSSEGTPSREPVASGSWTPKAEEPIHATMDPQRLGVLITPVPDAQAATRRQAVGLLAFLGLLFCLGVAMFTYQSLQGCPRKMAGEMAEGLRYIPRSCGSNSYVLVPV [R71A],disrupting interaction strength
2,MAPISLSWLLRLATFCHLTVLLAGQHHGVTKCNITCSKMTSKIPVALLIHYQQNQASCGAAAIILETRQHRLFCADPKEQWVKDAMQHLDRQAAALTRNGGTFEKQIGEVKPRTTPAAGGMDESVVLEPEATGESSSLEPTPSSQEAQRALGTSPELPTGVTGSSGTRLPPTPKAQDGGPVGTELFRVPPVSTAATWQSSAPHQPGPSLWAEAKTSEAPSTQDPSTQASTASSPAPEENAPSEGQRVWGQGQSPRPENSLEREEMGPVPAHTDAFQDWGPGSMAHVSVVPVSSEGTPSREPVASGSWTPKAEEPIHATMDPQRLGVLITPVPDAQAATRRQAVGLLAFLGLLFCLGVAMFTYQSLQGCPRKMAGEMAEGLRYIPRSCGSNSYVLVPV [K60A;R61A],with no effect
